Assay results as given in US20260116991A1 (HAINAN SIMCERE ZAIMING PHARMACEUTICAL, published 2026).
Positions count from the first letter of the chain named.

T1: polypeptide GC3pep (human)
T1 construct: also called membrane proximal polypeptide GC3pep
T1 peptide: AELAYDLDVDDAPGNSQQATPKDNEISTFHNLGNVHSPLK

B1: F4.21.16 (antibody, human IgG1, kappa, V domains shown)
VH: DVQLQESGPGLVKPSQSLSLTCSVTGYSITSGYYWNWIRQFPGNKLEWMGYISYDVTVNYNPSLKNRISITRDTSKNQFFLKLNSVTTEDTATYYCATITSVASMDHWGQGTSVTVSS
VL: DILMTQTPLSLPVSLGDQASISCRSSQNIVHRNGNTYLEWYLQKPGQSPKLLLYKVSNRFSGVPDRFSGSGSGTDFTLKISRVEAEDLGIYYCFQGSHFPFTFGSGTKLEIKR
notes: human-murine chimeric antibody
B2: F3.81.19 (antibody, human IgG1, kappa, V domains shown)
VH: QVQLQQSGAELVRPGASVKLSCKASGYTFTDYEMHWVKQTPVHGLEWIGTIDPETGNTAYNQKFKGKATLTADKSSSTAYMELRSLTSEDSAVYYCTRPYSLTYWGQGTLVTVSA
VL: DVLLTQTPLSLPVSLGDQASISCRSSQSFVHSNGDTYLQWYLQKPGQSPKLLIYKVSNRFSGVPDRFSGSGSGTDFTLKISRVEAEDLGVYYCFQGSHVPYTFGSGTKLEIKR
notes: as for B1
B3: F4.18.4 (antibody, human IgG1, kappa, V domains shown)
VH: QVQLHQSGAEMAKPGASVNLSCKTSGFTFTDYGISWVKQRTRQGLEWIGDIYPRHINIYYNEKFKDKATLTADRSSSTAYMELRSMTSEDSAVYFCARRGTTGRGALDYWGQGTSLTVSS
VL: DILLTQSPAILSVSPGERVSFSCRASQSIGTSIHWYQQRTNGSPRLLIKYAFESISGIPSRFGGSGSRTDFTLTINSVESEDIADYYCQQTYNWPYTFGGGTKLEIKR
notes: as for B1
B4: F4.13.7 (antibody, human IgG1, kappa, V domains shown)
VH: QVQLQQPGAELVKPGASVKLSCKASGYTFTNNWVHWVKQRPGQGLEWTGMIHPDSGSTIYNEKFQSKATLTVDKSSSTAYMQLSSLTSEDSAVYYCARGYYDSSSYYAMDYWGQGTSVTVSS
VL: NIQMTQTTSSLSASLGDRVTISCSASQGIFNYLNWYQQKPDGTVKLLIYYTSSLHSGVPSRFSGSGSGTDYSLTISNLEPEDIATYYCQQYSKLPWTFGGGTKLEIKR
notes: as for B1
B5: F3.81.19 human-murine chimeric antibody (antibody, human IgG1, kappa, V domains shown)
VH: B2 VH
VL: B2 VL
notes: Chimeric
B6: F2.154.1 human-murine chimeric antibody (antibody, human IgG1, kappa, V domains shown)
VH: B2 VH with T28R, N61T, K65M, G66D, P99G, L102F, V111A
VL: B2 VL with L4M, S28N, F29I, D35N, Y54F, Y101F, S105T
notes: Chimeric
B7: F2.23.8 human-murine chimeric antibody (antibody, human IgG1, kappa, V domains shown)
VH: B2 VH with I48F, T50A, N57G, K65R, G66A, P99F, L102F, T103A
VL: B2 VL with L3V, L4M, F29L, D35N, S81T, Y92F, F94S, G96S, S97T
notes: Chimeric
B8: F3.38.7 human-murine chimeric antibody (antibody, human IgG1, kappa, V domains shown)
VH: QVQLQQSGAELVRPGASVKLSCKASGYTFTDYEIHWVKQTPVLGLEWIGAIDPKTGNTAYNQKFMGKATLTADKSSTTAYMDLRSLTSEDSAVYYCTRYFSFAYWGQGTLVTVSA
VL: B2 VL with L4M, S28T, D35N
notes: Chimeric
B9: hAb005LH3L1b (antibody, human IgG1, V domains shown)
VH: EVQLVQSGAEVKKPGASVKVSCKASGYTFTDYEMHWVRQAPGQGLEWIGAIDPETGNTAYIQKFKGRATLTTDKSTSTAYMELRSLRSDDTAVYYCTRFYSYSHWGQGTTVTVSS
VL: DIVMTQTPLSLPVTPGEPASISCRSSQSLVHSNRNTYLHWYLQKPGQSPQLLIYKVSNRFSGVPDRFSGSGSGTDFTLKISRVEAEDVGVYYCSQNTHVPPTFGGGTKVEIK
notes: Humanized F3.54.12
B10: hAb007LH2L1 (antibody, human IgG1, V domains shown)
VH: EVQLVQSGAEVKKPGSSVKVSCKASGYTFTDYEMHWVRQAPGQGLEWMGTIDPETGNTAYNQKFKGRVTITADKSTSTAYMELSSLRSEDTAVYYCTRPYSLTYWGQGTLVTVSS
VL: B9 VL with L29F, R34G, N35D, H39Q, S94F, N96G, T97S, P101Y, G105Q, V109L
notes: Humanized F3.81.19
B11: hAb006LH2L1 (antibody, human IgG1, V domains shown)
VH: B10 VH with M34I, T50A, E54K, K65M, P99Y, Y100F, L102F, T103A
VL: B9 VL with S28T, L29F, R34G, H39Q, S94F, N96G, T97S, P101Y, G105Q, V109L
notes: Humanized F3.38.7
B12: hAb006LH3L1e (antibody, human IgG1, V domains shown)
VH: B10 VH with M34I, T50A, E54K, K65M, I70L, P99Y, Y100F, L102F, T103A
VL: B9 VL with S28T, L29F, R34V, H39Q, S94F, N96G, T97S, P101Y, G105Q, V109L
notes: Humanized F3.38.7
B13: hAb006LH3L1a (antibody, human IgG1, V domains shown)
VH: B10 VH with M34I, T50A, E54K, K65M, I70L, P99Y, Y100F, L102F, T103A
VL: DIVMTQTPLSLPVTPGEPASISCRSSQTFVHSDGNTYLQWYLQKPGQSPQLLIYKVSNRFSGVPDRFSGSGSGTDFTLKISRVEAEDVGVYYCFQGSHVPYTFGQGTKLEIK
notes: Humanized F3.38.7
B14: hAb006LH1L1b (antibody, human IgG1, V domains shown)
VH: B10 VH with T30S, M34I, T50A, E54K, K65M, P99Y, Y100F, L102F, T103A
VL: B13 VL with D33N, G34A
notes: Humanized F3.38.7
B15: hAb006LH1L1 (antibody, human IgG1, V domains shown)
VH: B10 VH with T30S, M34I, T50A, E54K, K65M, P99Y, Y100F, L102F, T103A
VL: B13 VL with D33N
notes: Humanized F3.38.7
B16: hAb006LH2L1a (antibody, human IgG1, V domains shown)
VH: B10 VH with M34I, T50A, E54K, K65M, P99Y, Y100F, L102F, T103A
VL: B13 VL
notes: Humanized F3.38.7
B17: hAb006LH1L1a (antibody, human IgG1, V domains shown)
VH: B10 VH with T30S, M34I, T50A, E54K, K65M, P99Y, Y100F, L102F, T103A
VL: B13 VL
notes: Humanized F3.38.7
B18: hAb006LH3L1d (antibody, human IgG1, V domains shown)
VH: B10 VH with M34I, T50A, E54K, K65M, I70L, P99Y, Y100F, L102F, T103A
VL: B13 VL with D33N, G34S
notes: Humanized F3.38.7
B19: hAb006LH2L1b (antibody, human IgG1, V domains shown)
VH: B10 VH with M34I, T50A, E54K, K65M, P99Y, Y100F, L102F, T103A
VL: B13 VL with D33N, G34A
notes: Humanized F3.38.7
B20: hAb007LH1L1 (antibody, human IgG1, V domains shown)
VH: B10 VH with T30S
VL: B13 VL with T28S, D33N, N35D
notes: Humanized F3.81.19
B21: F2.39.2 human-murine chimeric antibody (antibody, human IgG1, kappa, V domains shown)
VH: QVQLQQSGAELVRPGASVKVSCKASGYTFTDYEMHWMKQTPVHGLEWIGANEPETGRSAYDQKFKGKATLTADKSSSTAYMELRSLTSEDSAVYYCTRFYSFAYWGQGTLVTVSA
VL: DVVMTQTPLSLPVSLGDQASISCRSSQGLVHNNGNTYLHWYLQKPGQSPKLLIYKVSNRFSGVPDRFSGSGSGTDFTLKISRVEAEDLGVYFCSQNTHVPPTFGGGTKLEIKR
notes: Chimeric

Target: T1, polypeptide GC3pep
Experiment: ELISA, GC3pep coated, antibody 1 nM;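 also: bound antibody detected with an HRP-conjugated secondary antibody and TMB substrate, reaction stopped with HCl, after 2 h binding at 37 °C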

Row | OD450 nm [OD450 nm] | Binder
1 | 0.03 | B1
2 | 1.21 | B2
3 | 0.03 | B3
4 | 0.03 | B4

Target: T1, polypeptide GC3pep
Experiment: ELISA, GC3pep coated, antibody 100 nM;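 also: detection with an HRP-conjugated secondary antibody and TMB substrate, color reaction stopped with HCl before absorbance reading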

Row | OD450 nm [OD450 nm] | Binder
5 | 0.08 | B1
6 | 2.94 | B2
7 | 0.06 | B3
8 | 0.06 | B4

Target: T1, polypeptide GC3pep
Experiment: ELISA, GC3pep coated, antibody 0.01 nM;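 also: bound antibody detected with an HRP-conjugated secondary antibody and TMB substrate, color reaction stopped with HCl before reading absorbance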

Row | OD450 nm [OD450 nm] | Binder
9 | 0.04 | B1
10 | 0.05 | B2
11 | 0.04 | B3
12 | 0.04 | B4

Target: T1, polypeptide GC3pep
Experiment: ELISA, GC3pep coated, antibody 0.0001 nM

Row | OD450 nm [OD450 nm] | Binder
13 | 0.04 | B1
14 | 0.05 | B2
15 | 0.04 | B3
16 | 0.05 | B4

target: T2, murine GPC3-His protein (Sino Biological, Cat. No. 50989-M08B) (murine, UniProt Q8CFZ4 25-558); experiment: ELISA, coated antigen
T2 construct: Bought protein; also called murine GPC3 protein; mouse GPC3-his protein; not shown: His tag
T2 sequence (Q8CFZ4 25-558 limits assumed): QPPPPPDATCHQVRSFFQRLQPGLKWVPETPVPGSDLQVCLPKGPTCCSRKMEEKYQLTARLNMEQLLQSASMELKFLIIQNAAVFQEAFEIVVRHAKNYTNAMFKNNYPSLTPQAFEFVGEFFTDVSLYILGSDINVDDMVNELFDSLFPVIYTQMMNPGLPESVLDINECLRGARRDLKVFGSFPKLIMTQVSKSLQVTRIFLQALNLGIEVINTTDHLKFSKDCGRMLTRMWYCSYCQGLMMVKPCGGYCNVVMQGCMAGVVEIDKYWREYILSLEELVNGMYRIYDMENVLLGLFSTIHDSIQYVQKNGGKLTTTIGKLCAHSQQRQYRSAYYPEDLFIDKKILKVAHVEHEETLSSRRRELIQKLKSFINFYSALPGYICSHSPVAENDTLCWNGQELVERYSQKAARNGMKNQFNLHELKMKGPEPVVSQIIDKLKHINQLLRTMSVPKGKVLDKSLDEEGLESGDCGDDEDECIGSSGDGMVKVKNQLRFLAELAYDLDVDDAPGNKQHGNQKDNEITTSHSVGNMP

Row | binding result | Binder
17 | no binding (tested: 100 nM) | B5
18 | no binding (tested: 100 nM) | B6
19 | no binding (tested: 100 nM) | B7
20 | no binding (tested: 100 nM) | B8
21 | no binding | B9
22 | no binding | B10
23 | no binding | B11
24 | no binding | B12
25 | no binding | B13
26 | no binding | B14
27 | no binding | B15
28 | no binding | B16
29 | no binding | B17
30 | no binding | B18
31 | no binding | B19
32 | no binding | B20
33 | no binding (tested: 100 nM) | B21

Target: T1, polypeptide GC3pep
Experiment: ELISA, GC3pep coated, antibody 0.1 nM;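 also: antibody allowed to bind the coated plate 2 h at 37 °C, then detected via HRP-conjugated secondary antibody and TMB development for 10 min, stopped with HCl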

Row | OD450 nm [OD450 nm] | Binder
34 | 0.03 | B1
35 | 0.19 | B2
36 | 0.03 | B3
37 | 0.03 | B4

Target: T1, polypeptide GC3pep
Experiment: ELISA, GC3pep coated, antibody 10 nM;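 also: antibody bound to the coated peptide for 2 h at 37 °C, detected through an HRP-conjugated secondary antibody with TMB colour development stopped by acid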

Row | OD450 nm [OD450 nm] | Binder
38 | 0.04 | B1
39 | 2.88 | B2
40 | 0.03 | B3
41 | 0.04 | B4

Target: T1, polypeptide GC3pep
Experiment: ELISA, GC3pep coated, antibody 0.001 nM

Row | OD450 nm [OD450 nm] | Binder
42 | 0.04 | B1
43 | 0.05 | B2
44 | 0.04 | B3
45 | 0.08 | B4
